The values below come from patent publication US20100129315A1 (published 2010).

The assay addresses human MN protein, entire extra-cellular domain with a C-terminal histag, expressed in HKB-11 cells (human, UniProt Q16790 38-414). The assay is described as follows: BIAcore; crude Fab. (Surface plasmon resonance follows binding to a sensor surface in real time, without labels.)

B1: 5aa3 Crude Fab (antibody, V domains shown)
VH: ELVQSGAEVKKPGESLKISCKGSGYSFTGYISWVRQAPGKGLEWMGIIYPGDSYTNYSPSFQGQVTISADKSISTAYLQWSSLKASDTAMYYCARYSGPNWDVMDSWGQGTLVTVSS
VL: DIVLTQPPSVSGAPGQRVTISCSGSSSNIGSYYVNWYQQLPGTAPKLLIYADDKRPSGVPDRFSGSKSGTSASLAITGLQSEDEADYYCQSYDSTKDDSVFGGGTKL
On to B1, for which the Kd (in general, the concentration at which binding is half-saturated) turned out to be 25 nM.
